In US20250145711A1 (Janssen / Centocor, published 2025):

Assays:
[1] = target: T1, TRCW5 antigen (CD3δε-Fc-Avi) (biotinylated (site not stated)); test: ELISA, E. coli scFv on biotinylated TRCW5
T1 construct: also called recombinant CD3
Procedure: (§1) Briefly, DNA was transformed into an E. coli expression vector to generate scFv molecules having a C-terminal HA-tag, and cells were plated on 2×YT/Carb/2% Glucose grown overnight at 37 C. Colonies were picked and transferred 50 ul of overnight growth cultures to new plates containing 500 ul of 2×YT/Carb/0.1% Glucose, grown for 6-7 hr, and combined with 50 ul 2×YT medium containing 1×carbenicillin & 12×IPTG. Cultures were incubated with shaking ˜600 RPM 30° C. overnight. Streptavidin coated plates were bound with 50 μL of biotinylated TRCW5 antigen (CD3δε-Fc-Avi, SEQ ID NO: 39) at the concentrations indicated in the ELISA graph for 45 min at room temperature with shaking (FIG. 1, FIG. 3, FIG. 4) followed by washing 3× with 1×TBST. Plates were blocked with 200 ul 3% Milk in 1×TBST for ˜45 mins at room temperature followed by washing 3× with 1×TBST. E. coli cultures were harvested by centrifugation at […] for 10 mins 4° C. and 50 μL of supernatant was transferred into CD3-coated plates followed by incubation at 4 C for 45 min. Plates were washed 3× with 1×TBST. Bound scFv was detected with Chicken Polyclonal Anti-HA-HRP (ab1190) [1:1000] for ˜45 mins RT and luminescence detected with chemi-luminescent substrate.

[2] = target: T1, TRCW5 antigen (CD3δε-Fc-Avi); test: ELISA: biotinylated TRCW5 on streptavidin plates at the [CD3] of the x axis, E. coli scFv supernatant, anti-HA-HRP, luminescence
Procedure: as §1

[3] = target: T1, TRCW5 antigen (CD3δε-Fc-Avi); test: ELISA after heat
[4] = target: PSMA on C4-2B human prostate tumor cells (human, UniProt Q04609 1-750); test: flow cytometry, C4-2B cells
Procedure: Molecule concentrations ranged from 500-0 nM over 12-points at 3-fold dilution. […] Values reported in the Table 69 were generated by fitting the data to a four-parameter function for ligand binding generating values for y-min, y-max, EC50, and Hill. EC90 were calculated using the equation EC90=[…]\hat{ }(1/Hill)*EC50.

[5] = target: T2, Human CD79b long isoform, recombinant extracellular domain (CD9W8.001) (human, UniProt P40259 29-159); test: SPR Biacore 8K, antibody captured by anti-human Fc, CD79b in solution, 25 C, 1:1 Langmuir
T2 construct: extracellular domain; also called hu CD79b long
T2 sequence (looked up): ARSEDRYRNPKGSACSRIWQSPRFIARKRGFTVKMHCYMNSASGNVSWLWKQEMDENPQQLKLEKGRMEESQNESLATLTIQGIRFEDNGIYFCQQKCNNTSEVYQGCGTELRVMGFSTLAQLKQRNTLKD
Procedure: (§2) General Protocol for SPR Affinity Assessment: Affinity assessment of the bispecific and trispecific constructs against human CD79b were measured using recombinantly expressed extracellular domain of CD79b short and long isoforms (CD9W7.001 and CD9W8.001, respectively) by Surface Plasmon Resonance (SPR) using a Biacore 8 k SPR system (Biacore) at 25° C. in HBSP+ buffer. Cross-reactivity of the same antibody panel was also assessed against cyno and mouse antigens (CD9W1.001 and CD9W105.001, respectively). Briefly, a C1 sensor chip was immobilized with anti-human Fc (target immobilization levels of >400 RU) using vendor recommended amino coupling protocol. The test antibodies were captured through immobilized anti-Fc and was followed by the injection of different CD79b constructs at different concentration series (human CD79b short and long isoforms: 30 nM-0.37 nM at 3-fold dilutions; cyno and mouse CD79b: 3000 nM-37 nM at 3-fold dilutions). The association and dissociation phases were measured for 2 or 3 minutes and 30 minutes, respectively.
(§3) The raw binding sensorgrams were processed using Biacore Insight software (Biacore) by double-referencing and the processed sensorgrams were analyzed for cross-reactivity and fitted to a 1:1 Langmuir model to obtain on-rates, off-rates and affinities.

[6] = target: T3, Human CD79b short isoform, recombinant extracellular domain (CD9W7.001) (human, UniProt P40259 29-159); test: as above
T3 chain: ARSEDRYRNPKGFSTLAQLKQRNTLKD
Procedure: as §2, §3

[7] = target: T4, Human CD79b, endogenous on diffuse large B-cell lymphoma cell lines (human, UniProt P40259 29-229); test: flow cytometry on Carnaval cells (endogenous CD79b), 1 h 37 C, anti-human IgG AF647
T4 construct: On HBL-1, OCI-LY10 and Carnaval cells, which also carry CD20; also called Igβ
T4 sequence: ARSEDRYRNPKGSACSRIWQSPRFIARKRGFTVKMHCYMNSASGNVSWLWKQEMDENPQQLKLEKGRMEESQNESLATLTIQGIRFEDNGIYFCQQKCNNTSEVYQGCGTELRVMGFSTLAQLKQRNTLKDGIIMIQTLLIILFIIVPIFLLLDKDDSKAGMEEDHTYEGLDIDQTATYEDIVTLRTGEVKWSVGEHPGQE
Procedure: (§4) All cells were washed with BD stain buffer (BD Biosciences; Cat #554657), centrifuged at 1200 RPM for 3 minutes, with supernatant discarded. […] All cells were washed with BD stain buffer (BD Biosciences; Cat #554657), centrifuged at 1200 RPM for 3 mins, with supernatant discarded. Cells were analyzed using Intellicyt (Sartorius) flow cytometer and mean fluorescent intensity (MFI) was generated using Forcyt software (Sartorius). MFI was graphed and EC50 values generated using GraphPad PRISM v.8. Dose response curves were generated by transforming the x axis values using the formula […]. Data was then graphed using non-linear regression curve fit analysis “log(agonist) vs. response-variable slope (four parameter)”.

[8] = target: T4, Human CD79b, endogenous on diffuse …; test: flow cytometry on Carnaval cells; bispecific control in the trispecific table
Procedure: as §4

[9] = target: T4, Human CD79b, endogenous on diffuse …; test: flow cytometry on HBL-1 cells; bispecific control in the trispecific table
Procedure: as §4

[10] = target: T4, Human CD79b, endogenous on diffuse …; test: flow cytometry on HBL-1 cells (endogenous CD79b), 1 h 37 C, anti-human IgG AF647
Procedure: as §4

[11] = target: T1, TRCW5 antigen (CD3δε-Fc-Avi); test: ELISA: biotinylated TRCW5 on streptavidin plates at the antigen concentration of the x axis, E. coli scFv supernatant, anti-HA-HRP, luminescence
Procedure: as §1

T1 sequence (chain, as listed by the source mutant limits assumed): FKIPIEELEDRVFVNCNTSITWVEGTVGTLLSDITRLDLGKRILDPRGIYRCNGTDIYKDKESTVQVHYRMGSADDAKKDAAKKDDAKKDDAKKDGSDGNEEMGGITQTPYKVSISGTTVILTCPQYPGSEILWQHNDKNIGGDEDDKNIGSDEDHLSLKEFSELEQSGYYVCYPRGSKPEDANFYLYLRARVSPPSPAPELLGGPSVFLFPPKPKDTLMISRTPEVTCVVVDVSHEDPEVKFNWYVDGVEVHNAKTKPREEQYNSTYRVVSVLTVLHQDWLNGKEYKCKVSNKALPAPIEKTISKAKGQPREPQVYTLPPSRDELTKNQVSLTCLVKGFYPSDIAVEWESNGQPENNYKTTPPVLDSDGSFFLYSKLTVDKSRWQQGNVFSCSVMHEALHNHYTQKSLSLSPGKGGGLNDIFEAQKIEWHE
Chain of PSMA on C4-2B human prostate tumor cells (Q04609 whole entry): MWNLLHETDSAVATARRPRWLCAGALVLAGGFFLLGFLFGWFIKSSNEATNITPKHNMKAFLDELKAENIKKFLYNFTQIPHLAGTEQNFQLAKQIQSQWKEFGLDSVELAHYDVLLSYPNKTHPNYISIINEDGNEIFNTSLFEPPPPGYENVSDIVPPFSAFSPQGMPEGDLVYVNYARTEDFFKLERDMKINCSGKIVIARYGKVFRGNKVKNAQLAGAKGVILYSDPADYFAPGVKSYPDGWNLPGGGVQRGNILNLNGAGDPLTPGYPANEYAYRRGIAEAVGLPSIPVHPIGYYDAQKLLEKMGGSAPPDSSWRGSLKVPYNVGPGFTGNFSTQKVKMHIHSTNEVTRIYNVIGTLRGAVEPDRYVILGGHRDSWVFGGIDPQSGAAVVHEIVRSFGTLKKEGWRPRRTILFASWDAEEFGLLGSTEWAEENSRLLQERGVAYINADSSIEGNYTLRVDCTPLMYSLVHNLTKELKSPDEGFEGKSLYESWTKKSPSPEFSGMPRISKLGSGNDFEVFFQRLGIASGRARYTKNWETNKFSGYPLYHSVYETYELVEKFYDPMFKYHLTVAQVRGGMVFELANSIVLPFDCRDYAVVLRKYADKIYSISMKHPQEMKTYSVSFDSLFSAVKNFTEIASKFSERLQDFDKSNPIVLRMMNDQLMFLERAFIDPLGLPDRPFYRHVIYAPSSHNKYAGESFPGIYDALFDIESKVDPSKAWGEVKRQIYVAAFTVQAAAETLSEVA

B1: CD3B1127 (scFv)
scFv: QVQLQQSGAELARPGASVKMSCKASGYTFTRSTMHWVKQRPGQGLEWIGYINPSSAYTNYNQKFKDKATLTADKSSSTAYMQLSSLTSEDSAVYYCASPQVHYDYNGFPYWGQGTLVTVSAGGSEGKSSGSGSESKSTGGSQVVLTQSPAIMSAFPGEKVTMTCSASSSVSYMNWYQQKSGTSPKRWIYDSSKLASGVPARFSGSGSGTSYSLTISSMETEDAATYYCQQWSRNPPTFGGGTKLQIT
notes: also called Murine HL; murine Cris-7 scFv (HL)
EC50 [1]: ~0.397 nM | EC50 (read off the curve) [2]: ~0.4 nM | % Retained 55° C. [3]: 19% | % Retained 60° C. [3]: 0% | % Retained 65° C. [3]: 1%

B2: PSMB1069 (bispecific antibody, human IgG1, kappa, L234A L235A)
heavy: not shown
light: not shown
chain: QVQLVESGGGEVQPGRSLRLSCAASGFSFSGYGMHWVRQAPGKGLEWVAVMSYDGSNRFYVDSVRGRFSISRDNSKNTLYLQMNSLRPEDTAVYYCARDTVWGSHPDAFDIWGQGTVVTVSSGGSEGKSSGSGSESKSTGGSQSVLTQPPSVSVAPGQTARITCGGNNSGSKSVHWYQQKPGQAPVLVVYDDSDRPSGIPERFSGSNSGNTATLTISRVEAGDEADYYCQVWDSSSDHGVFGGGTKLTVLEPKSSDKTHTCPPCPAPEAAGGPSVFLFPPKPKDTLMISRTPEVTCVVVSVSHEDPEVKFNWYVDGVEVHNAKTKPREEQYNSTYRVVSVLTVLHQDWLNGKEYKCKVSNKALPAPIEKTISKAKGQPREPQVYVLPPSREEMTKNQVSLLCLVKGFYPSDIAVEWESNGQPENNYLTWPPVLDSDGSFFLYSKLTVDKSRWQQGNVFSCSVMHEALHNHYTQKSLSLSPG
notes: HC1/LC1 null arm; HC2 is the anti-PSMA scFv-Fc
fold binding signal (Y-max) over the average [4]: 2 fold

B3: 79C3B651 (bispecific antibody, human IgG1, kappa, L234A L235A)
heavy: QVQLQESGPGLVKPSQTLSLTCTVSGVSISNYYWSWIRQPPGKGLEWIGRISPSGRTNYNPSLKSRVTMSLDASKNQFSLKLSSVTAADTAVYYCARGEYSGTYSYSFDIWGQGTMVTVSSASTKGPSVFPLAPSSKSTSGGTAALGCLVKDYFPEPVTVSWNSGALTSGVHTFPAVLQSSGLYSLSSVVTVPSSSLGTQTYICNVNHKPSNTKVDKKVEPKSCDKTHTCPPCPAPEAAGGPSVFLFPPKPKDTLMISRTPEVTCVVVSVSHEDPEVKFNWYVDGVEVHNAKTKPREEQYNSTYRVVSVLTVLHQDWLNGKEYKCKVSNKALPAPIEKTISKAKGQPREPQVYTLPPSREEMTKNQVSLSCAVKGFYPSDIAVEWESNGQPENNYKTTPPVLDSDGSFFLVSKLTVDKSRWQQGNVFSCSVMHEALHNRFTQKSLSLSPGK
light: DIQMTQSPSSLSASVGDRVTITCRSSQSLFDSDDGNTYLDWFQQKPGQSPKLLIQTLSYRASGVPSRFSGSGSGTDFTLTISSLQPEDFATYYCMQRMEFPLTFGGGTKVEIKRTVAAPSVFIFPPSDEQLKSGTASVVCLLNNFYPREAKVQWKVDNALQSGNSQESVTEQDSKDSTYSLSSTLTLSKADYEKHKVYACEVTHQGLSSPVTKSFNRGEC
chain: EIVLTQSPATLSASPGERVTLSCSASSSVSYMNWYQQKPGQAPRRWIYDSSKLASGVPARFSGSGSGRDYTLTISSLEPEDFAVYYCQQWSRNPPTFGGGTKVEIKGGSEGKSSGSGSESKSTGGSQVQLVQSGAEVKKPGSSVKVSCKASGYTFTRSTMHWVKQAPGQGLEWIGYINPSSAYTNYNQKFQGRVTLTADKSTSTAYMELSSLRSEDTAVYYCASPQVHYDYAGFPYWGQGTLVTVSSEPKSSDKTHTCPPCPAPEAAGGPSVFLFPPKPKDTLMISRTPEVTCVVVSVSHEDPEVKFNWYVDGVEVHNAKTKPREEQYNSTYRVVSVLTVLHQDWLNGKEYKCKVSNKALPAPIEKTISKAKGQPREPQVYTLPPSREEMTKNQVSLWCLVKGFYPSDIAVEWESNGQPENNYKTTPPVLDSDGSFFLYSKLTVDKSRWQQGNVFSCSVMHEALHNHYTQKSLSLSPGK
notes: IgG1; HC1/LC form the CD79b Fab arm; HC2 is the CD3 scFv-Fc arm; Knobs-in-holes; also called CD79bxCD3 bsAb; CD9B643 x CD3B2030-N106A
Kd [5]: 0.052 nM | Kd [6]: 0.35 nM | EC50 [7]: 12 nM | EC50 [8]: 12 nM | EC50 [9]: 15 nM | EC50 [10]: 15 nM

B4: CD3B1136 (scFv)
scFv, VL-linker-VH (LH): EIVLTQSPATLSLSPGERATLSCSASSSVSYMNWYQQKPGTSPRRLIYDSSKLASGIPARFSGSGSGRDYTLTISSLEPEDFAVYYCQQWSRNPPTFGGGTKVEIKGGSEGKSSGSGSESKSTGGSEVQLVQSGAEVKKPGESLRISCKASGYTFTRSTMHWVRQMPGKGLEWMGYINPSSAYTNYNPSFQGHVTLSADKSISTAYLQWSSLKASDTAMYYCARPQVHYDYNGFPYWGQGTLVTVSS
binding result [11]: no binding (tested: 10 ug/ml (antigen))
